{"source": "patent US20160137746A1", "about": "“METHODS FOR TREATING HIGH CARDIOVASCULAR RISK PATIENTS WITH HYPERCHOLESTEROLEMIA” (Sanofi Biotechnology, priority 2014, published 2016)", "key": {"[1]": {"test_system": "high cardiovascular risk patients with hypercholesterolemia", "conditions": "in vivo", "procedure": "(§1) Safety assessments during both studies were as follows. Safety was assessed through adverse event (AE) reporting (including adjudicated cardiovascular events), laboratory analyses, and vital signs measurement. Since the LDL-C-lowering effects of PCSK9 inhibition on top of a statin are unknown, a number of AEs were defined as being of special interest and were monitored, including alanine aminotransferase abnormalities, allergic events, hemolytic anemia, pregnancy, overdose with study drug, neurologic events, ophthalmic events, and local injection site reactions.\n(§2) Safety Analyses were as follows. AEs (including adjudicated cardiovascular events), laboratory parameters, and vital signs were reported descriptively, based on the safety population (all randomized patients who received at least 1 dose or partial dose of study treatment). The safety analysis focused on the treatment-emergent AE period defined as the time from the first double-blind dose to the last double-blind dose of the investigational product +70 days (10 weeks).\n(§3) The safety population included all randomized patients who received at least one dose or part of a dose of the double-blind IMP.\n(§4) Safety analyses were descriptive, performed on the safety population according to treatment actually received. For analysis of TEAE and PCSA, the safety analysis focused on the TEAE period defined as the time from the first dose of double-blind IMP administration (capsule or injection, whichever comes first) up to 70 days after the last double-blind injection."}, "[2]": {"test_system": "high cardiovascular risk patients with hypercholesterolemia", "conditions": "in vivo", "remark": "listed apart in the source", "procedure": "Safety parameters (adverse events [including adjudicated cardiovascular events], laboratory data, vital signs, and ECG) were assessed throughout the study.\nSafety endpoints assessed in this trial were: cardiovascular events; allergic events; local tolerability at injection site; other adverse events (including hemolytic anemia); laboratory tests: urinalysis, hematology (red blood cell count, red blood cell distribution width (RDW), reticulocyte count, hemoglobin, hematocrit, platelets, white blood cell count with differential blood count), standard chemistry (sodium, potassium, chloride, bicarbonate, calcium, phosphorous, urea nitrogen, creatinine, uric acid, total protein, albumin, LDH, γ Glutamyl Transferase [γGT]), Vitamin E (alpha tocopherol) and other Fat Soluble Vitamins, cortisol (and reflexive ACTH levels, as needed, followed by ACTH stimulation test, as needed), Gonadal Hormone Assessments, Hepatitis C antibody, liver panel (ALT, AST, ALP, and total bilirubin), and CPK; vital signs including heart rate and blood pressure; and 12-lead ECG.\nas §3\nSafety analyses were descriptive, performed on the safety population according to treatment actually received. The safety analysis focused on the TEAE period defined as the time from the first dose of double-blind injection up to 70 days after the last double-blind injection. TEAE which developed, worsened or became serious or PCSA occurring after the patient's first injection in the open-label extension study (LTS13643) were not considered in the TEAE period. TEAE period was truncated at the common study cut-off date."}, "[3]": {"test_system": "high cardiovascular risk patients with hypercholesterolemia", "experiment": "ODYSSEY COMBO II: safety (TEAEs, adjudicated CV events, laboratory parameters, low LDL-C)", "procedure": "as §1, §2, §3, §4"}, "[4]": {"conditions": "alirocumab patients with two consecutive LDL-C ≦25 mg/dL (n = 105), number (%) of patients"}, "[5]": {"conditions": "safety population at 52 weeks, all patients, number (%) of patients"}, "[6]": {"conditions": "treatment period, safety population"}}, "note": "Read-outs that look alike come from different tables or passages of the source.", "data": [{"substance": "Alirocumab: human anti-PCSK9 antibody; HCVR SEQ ID NO:1, LCVR SEQ ID NO:6; CDRs SEQ ID NOs 2/3/4/7/8/10", "values": [{"measurement": "TEAE preferred term: Upper respiratory tract infection", "setting": "[1]", "result": "31 (6.5)"}, {"measurement": "TEAE system organ class: Infections and infestations", "setting": "[1]", "result": "130 (27.1)"}, {"measurement": "TEAE Lower respiratory tract infection (LRTI), % of patients", "setting": "[2]", "result": "3.0% (46)"}, {"measurement": "TEAE Upper respiratory tract infection (URTI), % of patients", "setting": "[2]", "result": "7.0% (109)"}, {"measurement": "TEAE Urinary tract infection, % of patients", "setting": "[2]", "result": "5.2% (81)"}, {"measurement": "TEAEs by System-Organ-Class: Infections and infestations, % of patients", "setting": "[2]", "result": "45.5% (705)"}, {"measurement": "Laboratory parameters: Blood glucose increased", "setting": "[3]; [4]", "result": "1 (1.0)"}, {"measurement": "Laboratory parameters: Hemoglobin decreased", "setting": "[3]; [4]", "result": "3 (2.9)"}, {"measurement": "Patients experiencing any TEAE", "setting": "[3]; [4]", "result": "72 (68.6)"}, {"measurement": "TEAE preferred term: Accidental overdose", "setting": "[3]; [4]", "result": "6 (5.7)"}, {"measurement": "TEAE preferred term: Angina pectoris", "setting": "[3]; [4]", "result": "2 (1.9)"}, {"measurement": "TEAE preferred term: Arthralgia", "setting": "[3]; [4]", "result": "5 (4.8)"}, {"measurement": "TEAE preferred term: Dizziness", "setting": "[3]; [4]", "result": "5 (4.8)"}, {"measurement": "TEAE preferred term: Headache", "setting": "[3]; [4]", "result": "4 (3.8)"}, {"measurement": "TEAE preferred term: Hypertension", "setting": "[3]; [4]", "result": "3 (2.9)"}, {"measurement": "TEAE preferred term: Influenza", "setting": "[3]; [4]", "result": "3 (2.9)"}, {"measurement": "TEAE preferred term: Myalgia", "setting": "[3]; [4]", "result": "4 (3.8)"}, {"measurement": "TEAE preferred term: Nasopharyngitis", "setting": "[3]; [4]", "result": "10 (9.5)"}, {"measurement": "TEAE preferred term: Upper respiratory tract infection", "setting": "[3]; [4]", "result": "4 (3.8)"}, {"measurement": "TEAE system organ class: Blood and lymphatic system disorders", "setting": "[3]; [4]", "result": "4 (3.8)"}, {"measurement": "TEAE system organ class: Cardiac disorders", "setting": "[3]; [4]", "result": "14 (13.3)"}, {"measurement": "TEAE system organ class: Eye disorders", "setting": "[3]; [4]", "result": "2 (1.9)"}, {"measurement": "TEAE system organ class: Gastrointestinal disorders", "setting": "[3]; [4]", "result": "19 (18.1)"}, {"measurement": "TEAE system organ class: General disorders and administration site conditions", "setting": "[3]; [4]", "result": "10 (9.5)"}, {"measurement": "TEAE system organ class: Infections and infestations", "setting": "[3]; [4]", "result": "35 (33.3)"}, {"measurement": "TEAE system organ class: Injury, poisoning, and procedural complications", "setting": "[3]; [4]", "result": "10 (9.5)"}, {"measurement": "TEAE system organ class: Investigations", "setting": "[3]; [4]", "result": "7 (6.7)"}, {"measurement": "TEAE system organ class: Metabolism and nutrition disorders", "setting": "[3]; [4]", "result": "6 (5.7)"}, {"measurement": "TEAE system organ class: Musculoskeletal and connective tissue disorders", "setting": "[3]; [4]", "result": "19 (18.1)"}, {"measurement": "TEAE system organ class: Neoplasms, benign, malignant and unspecified (including cysts and polyps)", "setting": "[3]; [4]", "result": "5 (4.8)"}, {"measurement": "TEAE system organ class: Nervous system disorders", "setting": "[3]; [4]", "result": "17 (16.2)"}, {"measurement": "TEAE system organ class: Psychiatric disorders", "setting": "[3]; [4]", "result": "2 (1.9)"}, {"measurement": "TEAE system organ class: Renal and urinary disorders", "setting": "[3]; [4]", "result": "7 (6.7)"}, {"measurement": "TEAE system organ class: Reproductive system and breast disorders", "setting": "[3]; [4]", "result": "4 (3.8)"}, {"measurement": "TEAE system organ class: Respiratory, thoracic, and mediastinal disorders", "setting": "[3]; [4]", "result": "11 (10.5)"}, {"measurement": "TEAE system organ class: Skin and subcutaneous tissue disorders", "setting": "[3]; [4]", "result": "10 (9.5)"}, {"measurement": "TEAE system organ class: Vascular disorders", "setting": "[3]; [4]", "result": "4 (3.8)"}, {"measurement": "Adjudicated cardiovascular events", "setting": "[3]; in vivo", "result": 4.8, "unit": "%"}, {"measurement": "SOC gastrointestinal disorders", "setting": "[3]; in vivo", "result": 15.0, "unit": "%"}, {"measurement": "SOC musculoskeletal and connective tissue disorders", "setting": "[3]; in vivo", "result": 19.6, "unit": "%"}, {"measurement": "Safety in patients with two consecutive calculated LDL-C <25 mg/dL", "setting": "[3]; in vivo", "result": "No particular safety concern"}, {"measurement": "Treatment-emergent local injection site reactions", "setting": "[3]; in vivo", "result": 2.5, "unit": "%"}, {"measurement": "Patients who experienced at least one TEAE", "setting": "[3]; mean 58 weeks' follow-up", "result": 71.2, "unit": "%"}, {"measurement": "Serious adverse event", "setting": "[3]; mean 58 weeks' follow-up", "result": 18.8, "unit": "%"}, {"measurement": "TEAE leading to death", "setting": "[3]; mean 58 weeks' follow-up", "result": "2 (0.4%) n (%)"}, {"measurement": "TEAEs leading to treatment discontinuation", "setting": "[3]; mean 58 weeks' follow-up", "result": 7.5, "unit": "%"}, {"measurement": "Tolerability", "setting": "[3]; overall results", "result": "well-tolerated"}, {"measurement": "Time to the first calculated LDL-C value <15 mg/dL, mean", "setting": "[3]; safety population", "result": 15.07, "unit": "weeks"}, {"measurement": "Time to the first calculated LDL-C value <15 mg/dL, median", "setting": "[3]; safety population", "result": 9.14, "unit": "weeks"}, {"measurement": "Time to the first calculated LDL-C value <25 mg/dL, mean", "setting": "[3]; safety population", "result": 12.56, "unit": "weeks"}, {"measurement": "Time to the first calculated LDL-C value <25 mg/dL, median", "setting": "[3]; safety population", "result": 5.14, "unit": "weeks"}, {"measurement": "Laboratory parameters: Blood glucose increased", "setting": "[3]; [5]", "result": "1 (0.2)"}, {"measurement": "Laboratory parameters: Hemoglobin decreased", "setting": "[3]; [5]", "result": "4 (0.8)"}, {"measurement": "Patients experiencing any TEAE", "setting": "[3]; [5]", "result": "341 (71.2)"}, {"measurement": "TEAE preferred term: Accidental overdose", "setting": "[3]; [5]", "result": "30 (6.3)"}, {"measurement": "TEAE preferred term: Angina pectoris", "setting": "[3]; [5]", "result": "12 (2.5)"}, {"measurement": "TEAE preferred term: Arthralgia", "setting": "[3]; [5]", "result": "19 (4.0)"}, {"measurement": "TEAE preferred term: Dizziness", "setting": "[3]; [5]", "result": "23 (4.8)"}, {"measurement": "TEAE preferred term: Headache", "setting": "[3]; [5]", "result": "21 (4.4)"}, {"measurement": "TEAE preferred term: Hypertension", "setting": "[3]; [5]", "result": "18 (3.8)"}, {"measurement": "TEAE preferred term: Influenza", "setting": "[3]; [5]", "result": "17 (3.5)"}, {"measurement": "TEAE preferred term: Myalgia", "setting": "[3]; [5]", "result": "21 (4.4)"}, {"measurement": "TEAE preferred term: Nasopharyngitis", "setting": "[3]; [5]", "result": "18 (3.8)"}, {"measurement": "TEAE system organ class: Blood and lymphatic system disorders", "setting": "[3]; [5]", "result": "11 (2.3)"}, {"measurement": "TEAE system organ class: Cardiac disorders", "setting": "[3]; [5]", "result": "60 (12.5)"}, {"measurement": "TEAE system organ class: Eye disorders", "setting": "[3]; [5]", "result": "23 (4.8)"}, {"measurement": "TEAE system organ class: Gastrointestinal disorders", "setting": "[3]; [5]", "result": "72 (15.0)"}, {"measurement": "TEAE system organ class: General disorders and administration site conditions", "setting": "[3]; [5]", "result": "56 (11.7)"}, {"measurement": "TEAE system organ class: Injury, poisoning, and procedural complications", "setting": "[3]; [5]", "result": "61 (12.7)"}, {"measurement": "TEAE system organ class: Investigations", "setting": "[3]; [5]", "result": "35 (7.3)"}, {"measurement": "TEAE system organ class: Metabolism and nutrition disorders", "setting": "[3]; [5]", "result": "27 (5.6)"}, {"measurement": "TEAE system organ class: Musculoskeletal and connective tissue disorders", "setting": "[3]; [5]", "result": "94 (19.6)"}, {"measurement": "TEAE system organ class: Neoplasms, benign, malignant and unspecified (including cysts and polyps)", "setting": "[3]; [5]", "result": "15 (3.1)"}, {"measurement": "TEAE system organ class: Nervous system disorders", "setting": "[3]; [5]", "result": "77 (16.1)"}, {"measurement": "TEAE system organ class: Psychiatric disorders", "setting": "[3]; [5]", "result": "21 (4.4)"}, {"measurement": "TEAE system organ class: Renal and urinary disorders", "setting": "[3]; [5]", "result": "21 (4.4)"}, {"measurement": "TEAE system organ class: Reproductive system and breast disorders", "setting": "[3]; [5]", "result": "12 (2.7)"}, {"measurement": "TEAE system organ class: Respiratory, thoracic, and mediastinal disorders", "setting": "[3]; [5]", "result": "45 (9.4)"}, {"measurement": "TEAE system organ class: Skin and subcutaneous tissue disorders", "setting": "[3]; [5]", "result": "35 (7.3)"}, {"measurement": "TEAE system organ class: Vascular disorders", "setting": "[3]; [5]", "result": "33 (6.9)"}, {"measurement": "Patients with 2 consecutive calculated LDL-C value <15 mg/dL", "setting": "[3]; [6]", "result": "(6.7%)"}, {"measurement": "Patients with 2 consecutive calculated LDL-C value <25 mg/dL", "setting": "[3]; [6]", "result": "(22.8%)"}, {"measurement": "Patients with 2 consecutive calculated LDL-C value <25 mg/dL", "setting": "[3]; treatment period, safety population, listed as alirocumab", "result": 22.8, "unit": "%"}]}]}
